Source: patent US12559545 (VANDERBILT UNIVERSITY, dated 2026)
Where a chain is given by its changes, count along the chain named.

T1: NiVM-G
T1 chain: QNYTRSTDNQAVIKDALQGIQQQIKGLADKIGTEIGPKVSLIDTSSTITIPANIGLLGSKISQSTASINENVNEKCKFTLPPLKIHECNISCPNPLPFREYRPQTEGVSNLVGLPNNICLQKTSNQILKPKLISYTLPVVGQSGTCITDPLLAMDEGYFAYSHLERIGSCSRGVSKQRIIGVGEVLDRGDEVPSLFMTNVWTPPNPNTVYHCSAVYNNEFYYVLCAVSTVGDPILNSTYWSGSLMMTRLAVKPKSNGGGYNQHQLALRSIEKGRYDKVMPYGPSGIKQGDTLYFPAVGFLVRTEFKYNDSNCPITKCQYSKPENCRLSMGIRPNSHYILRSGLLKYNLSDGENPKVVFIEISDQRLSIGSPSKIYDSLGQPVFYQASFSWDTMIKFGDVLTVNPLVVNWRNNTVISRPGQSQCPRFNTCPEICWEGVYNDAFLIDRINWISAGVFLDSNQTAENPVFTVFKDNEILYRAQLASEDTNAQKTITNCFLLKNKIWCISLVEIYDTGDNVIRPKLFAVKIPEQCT

T2: HeV-G
T2 chain: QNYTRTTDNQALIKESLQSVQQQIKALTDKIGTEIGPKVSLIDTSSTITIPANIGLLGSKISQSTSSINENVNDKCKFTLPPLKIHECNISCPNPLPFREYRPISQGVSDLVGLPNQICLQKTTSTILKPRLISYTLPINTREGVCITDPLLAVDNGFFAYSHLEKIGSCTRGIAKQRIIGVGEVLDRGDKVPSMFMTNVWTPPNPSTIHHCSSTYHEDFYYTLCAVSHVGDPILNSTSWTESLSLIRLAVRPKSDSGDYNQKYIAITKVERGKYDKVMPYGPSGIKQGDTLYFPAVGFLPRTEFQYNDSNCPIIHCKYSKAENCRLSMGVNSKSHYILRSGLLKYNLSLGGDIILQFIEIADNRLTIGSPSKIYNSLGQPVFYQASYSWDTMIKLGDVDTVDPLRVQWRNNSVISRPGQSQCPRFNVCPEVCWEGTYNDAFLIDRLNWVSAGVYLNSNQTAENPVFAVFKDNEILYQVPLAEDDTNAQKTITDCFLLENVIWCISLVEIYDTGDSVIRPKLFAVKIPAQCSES

B1: HENV-142 (antibody, V domains shown)
VH: QVRLQESGPRLVKPSQTLSLTCTVSGGSISSRDYYWSWIRQHPGKGLEWIGYIYYSGTTYYNPSLESRVTLSLDTSKNQFSLDLTSVTAADTAVYHCARVWLGGGVFDFWGQGTLVTVSA
VL: EIVMTQSPDTLSVSPGERATLSCRASHSVTTNLAWYQQRPGQAPRLLIFDASTRATGIPARFSGSGSGTEFTLTIGSLQSEDFAVYYCQQYNDGRTFGQGTKVEIK
B2: HENV-98 (antibody, V domains shown)
VH: AVQLVESGGGLVQPGGSLRLSCEASGFTFSGYWMSWVRQAPGKGLEWVANIKGDGSEKYYVDSVKGRFTIFRDNAKTSLYLQVNSLRAEDTAVYYCARERHFLAARPGYYIYSGLDVWGPGTTVTVSS
VL: DIQMTQSPSSLSASVGDRVTITCRASQSIDNYLNWYQQKPGKVPKLLIYAASNLQSGVPSKFSGGGSGTDFTLTISSLQPDDFATYYCQQSFGTPRTFGQGTRVEIK
B3: HENV-58 (antibody, V domains shown)
VH: QVQLVQSGAEVKKPGSSVKVSCKASGGTFSNYVISWVRQAPGQGFEWMGRIIPMIGISNYAQKFQDRVTITADKDESTTTAYMELRGLRSEDTAMYYCASSTVTEVGAWGQGTLVTVSS
VL: AIQLTQSPSSLSASIGDRVTITCRASQGISSALAWFQQKPGKPPILLIYDASSLESGVPARFSGSGSGTDFTLTISSLQPEDFATYYCQQFYNHPLTFGPGTKVDIK
B4: HENV-226 (antibody, V domains shown)
VH: EERLVQSGGGLAQPGQSLRLSCAGFGFTFTRYEMNWVRQAPGKGLEWIAHISTRGDTISYADSVKGRATISRDDTNNSLDLQMDSLRAEDTAIYFCARDRGSLSTRPPDSYHYYYHGMDVWGQGTTVIVSS
VL: EIVLTQSPATLSLSPGERATLSCRASQSIDTYLAWYQQKPGQAPRLLIYDASNRATGIPARFSGSGSGTDFSLTISSLEPDDFAVYYCQQRSNRPPRYTFGLGTRLEIK
B5: HENV-184 (antibody, V domains shown)
VH: QVQLVQSGTEVKNPGSSVKVSCKASGGTFSGFGISWVRQAPGQGLEWMGGVLPIFGSPNYAQKFQGRVTITADESTGTAYMDLSSLRSDDTAMYYCARDQSGGFFDYWGQGTLVIVSS
VL: EIVLTQSPATLSLSPGERATLSCRASQSVSSNLAWYQQKPGQAPRLLIYDASDRATGVPARFSGSGSGTDFTLTISSLEPEDFALYYCQQRYNWRVTFGQGTRLEIK
B6: HENV-222 (antibody, V domains shown)
VH: QVQLQESGPGLVKPSETLSLTCTVSGGSIDSYYWSWIRQPAGKGLEWIGRIYPSGTTNYNPSLKSRVTMSVDTSKNQFSLKVTSVTAADTAVYYCARMQTGFGSSLFFVPYFDNWGQGTLVTVSS
VL: B5 VL with N32Y, D53N, V58I, L85V, Y92G, R95P, V96L, Q100G, R103K, L104V
B7: HENV-103 (antibody, V domains shown)
VH: QVQLQGSGPGLVKPSQTLSLTCSVSGGSVSRSGYYWGWIRQHPGKGLECIGYIYYSGITYYNPSLSGRLTISVDTSKNQFSLELSSVTAADTAVYYCARVWLGGGVFDFWGQGSLVTVSS
VL: EIVMTQSPATLSVSPGEGATLSCRASQSVSSNLAWYQQKPGQAPRLLIYDASTRATGIPARFSGSGSGTEFTLTISSLQSEDFAVYYCQQYNDWRTFGRGTKVEMR
B8: HENV-170 (antibody, V domains shown)
VH: EVQLLESGGGLVQPGGSLRLSCAASGFTFSSYTMSWVRQAPGKGLEWVSGISGSGGNTYYAGSVKGRFTISRDNSKNTLYLQMNSLRAEDTAVYYCAKDGYTGQQLMRRGPWWFDPWGQGTLVTVSS
VL: SYVLTQPPSVSVAPGQTARITCGGNNIGSKSVHWYQQKPGQAPVLVVYDDSDRPSGIPERFSGSKSGNTATLTISRVEAGDEADYYCQVWDSSSDHVVFGGGTKLTVL
B9: HENV-150 (antibody, V domains shown)
VH: EVQLLESGGGLVQPGGSLRLSCAASGFTFSSSAMSWVRQTPGKGLEWVSTISGSGANTYYAASVKGRFPISRDNSKNTLFLQMNSLRAEDTAVYYCAKVSTVTFGGHVPRGSYFDYWGQGTQVTVSS
VL: B8 VL with T21P, D50E, S51N, G63A, S93R, V97Y, G101T, L105V
B10: HENV-100 (antibody, V domains shown)
VH: QVQLVQSGAEVKKPGASVKVSCKASGYTFTSYYINWVRQAPGQGLEWVGTINPSGGSTTYAQKFQGRVTVTRDTSTSTVYMDLSGLRSGDTAVYYCARDRKGLAATPVYSDYYYGMDVWGQGTTVTVSS
VL: EIVLTQSPATLSLSPGERATLSCRASQSVSSFLAWYQQKPGQAPRLLISDASKRATGIPARFSGSGSGTDFSLTISSLEAEDFAVYYCQQSTNWRITFGQGTRLELK
B11: HENV-117 (antibody, V domains shown)
VH: QVQLQQWGAGLLKPSETLSLTCDLSGGSFTNYYWTWIRHLPGKGLEWLGEINHSGRTNYSPSLKSRVTISVDTSKNQFSLRLSSVTAADTAVYYCARDIRKLAPKPHSYDLYYGMDVWGQGTTVTVSS
VL: EIVLTQSPGTLSLSPGERATLSCRASQSVGSNYLTWYQQKPGQPPRLLIYGASNRAAGIPDRFSGSGSGTDFTLTISRLEPEDFAVYYCQQYETSSRTFGQGTKVDIR
B12: HENV-122 (antibody, V domains shown)
VH: EVQLLESGGGLVQPGGSLRLSCAASGFTFSTNAMSWVRQAPGKGLEWVSTVSGSGAHPNYGDSVKGRFTISRVNSKNTLFLQMSSLRAEDTAIYYCARVSTVTVGGHIPRGYYFDYWGQGTLVTVSS
VL: EILLTQSPGTLSLSPGERATLSCRASQSASSSYLAWYQQKPGQAPRLLIYGASTRATGIPDRFSGSGSGTEFTLTISRLESEDFAVYYCHHYGSSRTFGQGTKVEVK
B13: HENV-99 (antibody, V domains shown)
VH: QVLLVQSGAEVRKPGASVKVSCRASGYTFTDYYMHWVRQAPGQGLEWMGWINPNSGATKYAQKFQGRVTLTRDTSINTAYMELSGLRSVDTAVFYCASVPPSGFFYWGSDYWGQGTLVTVSS
VL: DVVLTQSPLSLPVTLGQPASISCRSSQSLVYSDGTTYLNWFQQRPGQSPRRLIYKVSYRDSGVPDRFSGSGSGTDFTLEISRVEAEDVGIYYCMHGTHWETWTFGQGTKVEIK
B14: HENV-141 (antibody, V domains shown)
VH: QVQLVQSGAEVKKPGSSVKVSCKASGGTFSSYTISWVRQAPGQGLEWMGRIIPISGITNYAQKFQGRVTITADKSTSTAYMELSSLRSEDTAVYYCAKDCYYGSGTYYGCRADYQWHHTMDVWGQGTTVTVSS
VL: DIQMTQSPSSLSASVGDRVTITCRASQGIRNDLGWFQQKPGKAPKRLIYAASSLQSGVPSRFSGSGSGTEFTLTISSLQPEDFATYFCLQHNTYPLTFGQGTKVEIK
B15: HENV-242 (antibody, V domains shown)
VH: QVQLVQSGAEVKKPGSSVTVSCKTSGGTFSGYAVSWVRQAPGQGLEWMGRIVPQFNIPNYAQKFQDRVTITADESTGTSYMELSSLRSDDTAVFYCARENIQTIFGVVAMMGGGGYFDSWGQGTLVTVSS
VL: DIQMTQSPSSLSASVGDRVTITCQANQDINTYLNWYLQKPGKAPQLLVFDASNLVTGVPSRFSGGGSRTDFTLTIDSLQPEDIGTYYCQQYDHLPRRTFTFGPGTKVDLK

Target: T1, NiVM-G

| Binder | EC50 |
| --- | --- |
| B1 | 1030 pM |
| B2 | 396 pM |
| B3 | 739 pM |
| B4 | 259 pM |
| B5 | 622 pM |
| B6 | 586 pM |
| B7 | 611 pM |
| B8 | 378 pM |
| B9 | 270 pM |
| B10 | 316 pM |
| B11 | 1230 pM |
| B12 | 407 pM |
| B13 | 294 pM |
| B14 | 266 pM |
| B15 | 716 pM |

Target: T2, HeV-G

| Binder | EC50 |
| --- | --- |
| B1 | 1860 pM |
| B2 | 434 pM |
| B3 | 1140 pM |
| B5 | 1190 pM |
| B6 | 5660 pM |
| B7 | 806 pM |
| B8 | 518 pM |
| B9 | 328 pM |
| B10 | 469 pM |
| B11 | 1060 pM |
| B12 | 387 pM |
| B13 | 420 pM |
| B14 | 326 pM |
| B15 | 6600 pM |
